Assay [1] concerns the target human CD123 on target cell lines (Kasumi-3, Molm13, THP-1, TF-1, RS4-11) (human, UniProt P26951 19-378). Kind of assay: cell-based or functional assay.
The next assay has as its target T1, Cynomolgus CD123-His (cynomolgus monkey).
T1 construct: Only the label 'Cynomolgus CD123-His' is printed; also called cynomolgus monkey CD123
Kind of assay: kinetic binding measurement, method not stated.

For the next assay, the target named is T2, Human CD123-His (human, UniProt P26951 19-305, limits assumed).
T2 construct: Only the label 'Human CD123-His' is printed; also called interleukin 3 receptor alpha; IL-3Ra; not shown: His tag
T2 sequence (looked up): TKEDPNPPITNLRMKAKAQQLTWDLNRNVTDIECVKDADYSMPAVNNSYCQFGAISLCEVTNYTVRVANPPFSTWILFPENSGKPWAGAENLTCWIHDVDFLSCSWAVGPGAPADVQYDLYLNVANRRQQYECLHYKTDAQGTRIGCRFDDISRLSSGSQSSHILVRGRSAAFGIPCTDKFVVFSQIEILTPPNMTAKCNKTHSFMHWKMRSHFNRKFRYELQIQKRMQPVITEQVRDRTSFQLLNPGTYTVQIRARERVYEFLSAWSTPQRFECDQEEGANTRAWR
Kind of assay: kinetic binding measurement, method not stated.

The source of these data is patent publication US20220323583A1 (MacroGenics, published 2022).

B1: DART-A, sequence-optimized CD123×CD3 bispecific diabody (bispecific antibody)
chain 1: QAVVTQEPSLTVSPGGTVTLTCRSSTGAVTTSNYANWVQQKPGQAPRGLIGGTNKRAPWTPARFSGSLLGGKAALTITGAQAEDEADYYCALWYSNLWVFGGGTKLTVLGGGGSGGGGEVQLVQSGAELKKPGASVKVSCKASGYTFTDYYMKWVRQAPGQGLEWIGDIIPSNGATFYNQKFKGRVTITVDKSTSTAYMELSSLRSEDTAVYYCARSHLLRASWFAYWGQGTLVTVSSGGCGGGEVAALEKEVAALEKEVAALEKEVAALEK
chain 2: DFVMTQSPDSLAVSLGERVTMSCKSSQSLLNSGNQKNYLTWYQQKPGQPPKLLIYWASTRESGVPDRFSGSGSGTDFTLTISSLQAEDVAVYYCQNDYSYPYTFGQGTKLEIKGGGSGGGGEVQLVESGGGLVQPGGSLRLSCAASGFTFSTYAMNWVRQAPGKGLEWVGRIRSKYNNYATYYADSVKDRFTISRDDSKNSLYLQMNSLKTEDTAVYYCVRHGNFGNSYVSWFAYWGQGTLVTVSSGGCGGGKVAALKEKVAALKEKVAALKEKVAALKE
notes: Two chains covalently bonded by a disulfide bond, no Fc; a second species lacks the C-terminal lysine; also called CD123×CD3 diabody; CD123 × CD3 Bi-Specific Diabodies
For the molecule B1, in assay [1], the “EC50 of redirected killing, E:T = 10:1, Kasumi-3 target cells” value stood at 0.01 ng/mL; the “EC50 of redirected killing, E:T = 10:1, Molm13 target cells” value amounted to 0.18 ng/mL; the “EC50 of redirected killing, E:T = 10:1, RS4-11 target cells” value stood at 0.5 ng/mL; the “EC50 of redirected killing, E:T = 10:1, TF-1 target cells” value was 0.46 ng/mL. Also, the “EC50 of redirected killing, E:T = 10:1, THP-1 target cells” value in assay [1] came out at 0.24 ng/mL. Also, in the assay with Cynomolgus CD123-His, the Kd came out at 270 pM, the dissociation rate constant (koff) came out at 0.0004 s⁻¹ and the on-rate (kon) stood at 1.5e+06 M⁻¹ s⁻¹. For the same molecule, in the assay with Human CD123-His, binding was put at a Kd of 130 pM, the koff is 0.00019 s⁻¹ and the kon came out at 1.6e+06 M⁻¹ s⁻¹.

One may read the Kd as a measure of binding affinity in units of concentration. The low end stands for higher affinity, the high end for lower affinity. For orientation: koff means a measure of how fast the partners let go of each other. Low values mean a long-lived complex, high ones a short-lived complex. By kon is commonly meant the rate constant with which the complex forms.
